This assay has as its target 6X His-Raf1 (purified recombinant) (UniProt P04049 1-648, fluorescent label in the MST (kind and site not stated)). Briefly: MST.

B1: GLS (purified recombinant) (enzyme)
chain: HPWWGGGGWPAEPLARGLSSSPSEILQELGKGSTHPQPGVSPPAAPAAPGPKDGPGETDAFGNSEGKELVASGENKIKQGLLPSLEDLLFYTIAEGQEKIPVHKFITALKSTGLRTSDPRLKECMDMLRLTLQTTSDGVMLDKDLFKKCVQSNIVLLTQAFRRKFVIPDFMSFTSHIDELYESAKKQSGGKVADYIPQLAKFSPDLWGVSVCTVDGQRHSTGDTKVPFCLQSCVKPLKYAIAVNDLGTEYVHRYVGKEPSGLRFNKLFLNEDDKPHNPMVNAGAIVVTSLIKQGVNNAEKFDYVMQFLNKMAGNEYVGFSNATFQSERESGDRNFAIGYYLKEKKCFPEGTDMVGILDFYFQLCSIEVTCESASVMAATLANGGFCPITGERVLSPEAVRNTLSLMHSCGMYDFSGQFAFHVGLPAKSGVAGGILLVVPNVMGMMCWSPPLDKMGNSVKGIHFCHDLVSLCNFHNYDNLRHFAKKLDPRREGGDQRVKSVINLLFAAYTGDVSALRRFALSAMDMEQRDYDSRTALHVAAAEGHVEVVKFLLEACKVNPFPKDRWNNTPMDEALHFGHHDVFKILQEYQVQYTPQGDSDNGKENQTVHKNLDGLL
Turning to B1, the Kd turned out to be 183 nM.

The values above are taken from PMC10942467 (bioRxiv, 2024).
